Experimental data from PMC3153647 (The Journal of Cell Biology, 2011).

Target: T1, His-tagged Stx6 (aa 1–234) (human, UniProt O43752 1-234)
T1 sequence: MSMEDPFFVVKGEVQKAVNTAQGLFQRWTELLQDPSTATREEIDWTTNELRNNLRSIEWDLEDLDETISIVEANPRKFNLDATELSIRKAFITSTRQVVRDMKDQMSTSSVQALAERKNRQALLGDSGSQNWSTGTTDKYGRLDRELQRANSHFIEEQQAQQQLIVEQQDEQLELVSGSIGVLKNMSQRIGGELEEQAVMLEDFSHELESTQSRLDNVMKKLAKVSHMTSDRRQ
Assay: pull-down

B1: GST-Cog6 (aa 1–200), bacterial (domain or fragment)
chain: MAEGSGEVVAVSATGAANGLNNGAGGTSATTCNPLSRKLHKILETRLDNDKEMLEALKALSTFFVENSLRTRRNLRGDIERKSLAINEEFVSIFKEVKEELESISEDVQAMSNCCQDMTSRLQAAKEQTQDLIVKTTKLQSESQKLEIRAQVADAFLSKFQLTSDEMSLLRGTREGPITEDFFKALGRVKQIHNDVKVLL
  binding result: binds
